Earlier results in PMC12528258.
Like-named read-outs stand apart in the source and are kept apart here. Values belong to the substance of their own block, whether it stands above or below them.

Tests used:
[1] = target: H3K9me3 tail tail (Homo sapiens) (UniProt P68431)
[2] = target: H3K9me3 tail tail (Homo sapiens) (UniProt P68431); remark: listed apart in the source
[3] = target: H3K9me3 tail tail (Homo sapiens) (UniProt P68431); remark: listed apart in the source
[4] = target: H3K9me3 tail tail (Homo sapiens) (UniProt P68431); remark: listed apart in the source

Sequence of HP1α (P45973 whole entry): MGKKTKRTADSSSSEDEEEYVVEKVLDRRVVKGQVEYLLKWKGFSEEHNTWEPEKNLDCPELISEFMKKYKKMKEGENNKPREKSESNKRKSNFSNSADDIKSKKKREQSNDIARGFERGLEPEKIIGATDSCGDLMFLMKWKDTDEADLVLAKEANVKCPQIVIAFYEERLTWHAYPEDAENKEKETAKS
Sequence of HP1γ (Q13185 2-183): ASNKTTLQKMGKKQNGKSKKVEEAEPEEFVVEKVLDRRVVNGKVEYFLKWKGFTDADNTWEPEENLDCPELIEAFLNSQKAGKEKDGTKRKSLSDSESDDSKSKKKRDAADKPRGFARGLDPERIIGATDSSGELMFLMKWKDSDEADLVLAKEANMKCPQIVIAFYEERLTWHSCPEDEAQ
Sequence of HP1β (P83916 whole entry): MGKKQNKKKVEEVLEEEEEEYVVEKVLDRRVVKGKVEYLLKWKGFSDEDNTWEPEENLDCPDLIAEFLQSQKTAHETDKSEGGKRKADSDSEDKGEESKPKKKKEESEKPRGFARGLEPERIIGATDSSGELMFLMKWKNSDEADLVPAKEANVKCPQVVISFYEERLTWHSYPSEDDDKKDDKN

Kd [1]: 8.3 µM
Kd [2]: 35 µM
Substance: HP1α (from UniProt P45973)

Kd [3]: 5.8 µM
Substance: HP1β (from UniProt P83916)

Kd [4]: 12 µM
Substance: HP1γ (from UniProt Q13185)
